# From US7345160B2, “Aequorin and obelin mutants with differing wavelengths and bioluminescence” (University of Kentucky Research Foundation, priority 2004, dated 2008)
# Values joined by “and” are separate entries in the source; they are usually repeats but may differ in a detail not shown here. Equal entries are not always repeated. Where two headings read alike, the source gives them in different places.
# Assays:
# [1] = Emission spectra (emission maximum) of purified aequorin mutants with coelenterazine analogues; assay type: physicochemical
# From the text: In order to detect the inventive aequorin mutants, the use of an instrument capable of detecting flash-type bioluminescence over a wide range of wavelengths is envisaged. For example, a fiber optic sensor collects the bioluminescence signal emitted by the aequorin and transmits it to a grating that directs the beam of light to onto an optical array detector. In one embodiment, the system to acquire the spectra from the flash kinetics of aequorin and obelin luminescence consists of a microtiter plate reader. The optical path of the instrument is replaced with a high collecting efficiency fiber optic bundle. This fiberoptic bundle carries the emitted light into an Oriel Instruments Fixed Imaging Compact Spectrograph, the dispersed light is then fed into an ANDOR cooled CCD detector. See for example the SpectroSystem By Sciencewares, Inc (East Falmouth, Mass.).
# Cysteine free aequorin (Mutant S), Y132I Mutant S aequorin, Aeq5 (Mutant S with a cysteine at position 5), and wild type Aequorin were purified and multiple spectra taken and averaged (See FIG. 1). […] Mutant S had emission maximums ranging from 448 nm to 491 nm. Y132I Mutant S has emission maximums ranging from 453 nm to 487 nm. Aequorin 5 had emission maximums ranging from 466 nm to 491 nm. The greatest spread in emission maximum thus far has been between MutS/CTZ i and MutS/CTZ hcp (448 nm, 491 nm, respectively (43 nm range)). […] The greatest spread in emission maxima wavelengths so far with the same coelenterazine is CTZ hcp with Aeq5 (476 nm) and MutS (448 nm) being 28 nm. Also, the maximum spread with the same CTZ's and different aequorins is 19 nm for i, ip, and f.
# Mutant S, Mutant S Y132I and Aeq 5 final emission spectrums were the result of the average of three trials. Wild type aequorins final spectrum was the result of two trials. All mutants, except Aeq5, were purified to >95% purity using SDS-PAGE and silver staining. All coelenterazine analogues were diluted to 100 micrograms/ML methanol. Solvent composition, coelenterazine concentration, temperature, and incubation time, were the same for all trials except with N coelenterazine, which required a higher concentration of aequorin than the other coelenterazines to show activity. Concentrations of the different mutants were not identical. Half life determination of Y132I Mut S with coelenterazines i, ip, h, hcp, cp, fcp, f, and native were 23, 0.9, 0.4, 0.2, 0.6, 0.7, 2.6, and 1.2 seconds, respectively.
# [2] = in solution at 4° C. for over a month; cited from earlier work
# [3] = general statement, cited from earlier work
# [4] = Emission spectra of obelin and obelin mutants with coelenterazine analogues; assay type: physicochemical; conditions: all coelenterazine analogues
# From the text: Obelin mutants C75S/C51/S, C75S/C67, C158S, C151S, and wild type obelin were purified and multiple spectra taken and averaged (See FIG. 20).
molecule,measurement,setting,value
"wild type aequorin: native recombinant aequorin encoded by SEQ ID NO: 1, purchased commercially (Aqualite from Molecular Probes) (protein, listed as Aequorea victoria) VKLTSDFDNPRWIGRHKHMFNFLDVNHNGKISLDEMVYKASDIVINNLGATPEQAKRHKDAVEAFFGGAGMKYGVETDWPAYIEGWKKLATDELEKYAKNEPTLIRIWGDALFDIVDKDQNGAITLDEWKAYTKAAGIIQSSEDCEETFRVCDIDESGQLDVDEMTRQHLGFWYTMDPACEKLYGGAVP",emission maximum,"[1]; over all coelenterazine analogues (i, ip, h, hcp, cp, fcp, f, n, native)",472 nm
same,emission maximum,"[1]; over all coelenterazine analogues (i, ip, h, hcp, cp, fcp, f, n, native), listed as Wild type aequorin",the same emission maxima for all coelenterazines analogues
same,emission maximum,"[1]; over all coelenterazine analogues (i, ip, h, hcp, cp, fcp, f, n, native), listed as native recombinant aequorin",472 nm
same,original activity retained on storage,[2],85%
same,emission wavelength of aequorin,[3],469-472 nm
same,emission wavelength of aequorin,[3]; listed as aequorin,469 nm
same,emission wavelength of aequorin,[3]; listed as recombinant aequorin,469 nm
"Mutant S: aequorin mutant where the three cysteine residues are replaced with serine (positions 145, 152, 180); SEQ ID NO: 4 (protein, listed as Aequorea victoria) VKLTSDFDNPRWIGRHKHMFNFLDVNHNGKISLDEMVYKASDIVINNLGATPEQAKRHKDAVEAFFGGAGMKYGVETDWPAYIEGWKKLATDELEKYAKNEPTLIRIWGDALFDIVDKDQNGAITLDEWKAYTKAAGIIQSSEDSEETFRVSDIDESGQLDVDEMTRQHLGFWYTMDPASEKLYGGAVP",spread in emission maximum between CTZ i and CTZ hcp,"[1]; same protein, CTZ i vs CTZ hcp",43 nm
same,emission maximum,"[1]; with CTZ hcp, listed as MutS",491 nm and 448 nm
same,emission maximum,[1]; with CTZ i,448 nm
"Wild type obelin: bioluminescent protein from the marine hydroid Obelia longissima; SEQ ID NO: 6 (protein, listed as Obelia longissima) MSSKYAVKLKTDFDNPRWIKRHKHMFDFLDINGNGKITLDEIVSKASDDICAKLEATPEQTKRHQVCVEAFFRGCGMEYGKEIAFPQFLDGWKQLATSELKKWARNEPTLIREWGDAVFDIFDKDGSGTITLDEWKAYGKISGISPSQEDCEATFRHCDLDNSGDLDVDEMTRQHLGFWYTLDPEADGLYGNGVP",emission maxima,[4],469 nm
